In patent publication US7576071B2, “Antithrombotic compound” (sanofi-aventis, priority 2004, dated 2009):
Structures can show the parent of a compound that is named as a salt.

Columns and labels:
Bovine factor Xa = assay: Determination of anti-factor Xa activity in buffer (microtiter plate method, AT-III mediated); type: biochemical; details: Kabi buffer, human AT-III
Excerpt: II. Determination of Anti-Factor Xa Activity in Buffer
(Microtiter Plate Method)
Anticoagulants can inhibit Xa directly or, like heparin, by potentiating the inhibitory activity of AT-III. Anti-Xa activity can be assessed by determination of the rate of hydrolysis of the chromogenic substrate S-2222 in the presence of AT-III. This assay is used to determine anti-Xa activity of heparinoid preparations in Kabi buffer.
Test medium: Kabi buffer.
Ref. compound: International standard heparin (11.4 anti-Xa U/mg).
Composition of the buffer: NaCl 10.17 g (174 mmol); edetate disodium dihydrate 3.26 g (9.6 mmol); tromethamine (Tris) 6.11 g (50.4 mmol); made up to 1 L with ultrapure H2O *. The pH of the solution is adjusted to 7.4 with hydrochloric acid (0.10 mol/L)
Bovine factor Xa (Kabi Diagnostica, Stockholm, Sweden) is dissolved in Kabi buffer to give a solution containing 1.5 U/mL (0.75 nKat/mL). • 3. S-2222 solution
S-2222 (Kabi Diagnostica) is dissolved in ultrapure H2O to give a solution containing 0.375 mg/mL (0.5 mmol/L). • 4. AT-III solution
Human AT-III (Kabi Diagnostica) is dissolved in Kabi buffer to give a solution containing 0.25 U/mL. A fresh solution has to be prepared daily. • 5. Standard solution of the calibration sample
Standard heparin is dissolved in Kabi buffer to give a standard solution containing approx. 0.25 anti-Xa U/mL.
Each preparation is dissolved in ultrapure H2O and diluted with Kabi buffer to the required concentrations in the range of 0.02-0.2 anti-Xa U/mL
Each test sample (0.05 mL) is pipetted into a well of a microtiter plate at RT. AT-III solution (0.05 mL) is added to each sample and the plate is shaken using a Vari-shaker.
An aliquot of Xa solution (0.05 mL) is pipetted into each well 10 min following addition of AT-III solution and the plate is shaken again. Exactly 2 min following addition of Xa solution, 0.1 mL S-2222 solution is pipetted into each well and the plate is shaken again. For all additions a 12-channel pipette is used.
The remaining amount of Xa catalyses the hydrolysis of S-2222, the rate of which is measured photometrically following incubation periods of 2 and 22 min respectively at RT. The absorbance of each sample is measured at 405 nm using a Reader Microelisa, model 310C (Organon Teknika, Oss, The Netherlands) and the increase in absorbance (ΔOD) is calculated. Each test sample is determined in duplicate. With every 10 samples, a blank (0.05 mL Kabi buffer) is included.
From an aliquot of the standard solution of the calibration sample a range of dilutions is made (dilution factor 1,3 for heparin samples). The resulting standard samples (approx. 15 samples) should contain between 0.01-0.25 anti-Xa U/mL. […]
For each sample the mean anti-Xa activity in U/mL is determined using the calibration curve. […]

[1] = Pharmacokinetics (half-life) in guinea pigs; details: 0.5 μmol/kg i.v., ex-vivo plasma anti-Xa activity, compared to reference GpIIb/IIIa antagonists (XVII, XIX, XX by LC-MS/MS)
Protocol: Guinea pigs (DH) were administered 0.5 μmol/kg (i.v.) of anticoagulant. The half-life of the pentasaccharide XXII, the “parent” of the oligosaccharide part of the conjugates, and conjugate VIII were indirectly assigned by ex-vivo determination of plasma anti-Xa activity at specific time-intervals as described above. The half-lives of the reference GPIIb/IIIa antagonists XVII, XIX and XX (see Scheme 10) were determined by measuring the plasma concentration at specific time-intervals using LC-MS/MS.

CO[C@H]1O[C@H](COS(=O)(=O)O)[C@@H](O[C@@H]2O[C@@H](C(=O)O)[C@@H](O[C@H]3O[C@H](COS(=O)(=O)O)[C@@H](O[C@@H]4O[C@H](C(=O)O)[C@@H](O[C@H]5O[C@H](COS(=O)(=O)O)[C@@H](OCCOCCOCCOCCNC(=O)COCCOCCOCCOCCNC(=O)[C@H](CC(=O)O)NC(=O)[C@@H]6CCCN(C(=O)CCC7CCNCC7)C6)[C@H](OC)[C@H]5OC)[C@H](OC)[C@H]4OC)[C@H](OS(=O)(=O)O)[C@H]3OS(=O)(=O)O)[C@H](OC)[C@H]2OC)[C@H](OC)[C@H]1OS(=O)(=O)O [Compound VIII, sodium salt]
Anti-Xa activity (Bovine factor Xa; substrate S-2222, calibrated against standard heparin): 605 ± 43 U/mg
Anti-Xa activity (Bovine factor Xa; substrate S-2222, per nmol (from U/mg and Mw)): 1.45 U/nmol
half life [1]: significantly prolonged
